Numbering of substitutions follows the chain as printed.
B1: ch60F11 (antibody, V domains shown)
VH: QVQLQQPGAELVKPGASVKLSCKASGYTFTSYWMHWVKQRPGQGLEWIGMIHPNSGSTNYNEKFKSKATLTVDKSSSTAYMQLSSLTSEDSAVYYCARMGLGNAMDYWGQGTSVTVSS
VL: DIVMTQSPSSLTVTAGEKVTLSCKSSQSLLNSGNQRNYLTWYQQKPGQPPKLLIYWASTRESGVPDRFTGSGSGTDFTLTISSVQAEDLAVYYCQNAYSYPLTFGAGTKLELK
B2: ch97A9 (antibody, V domains shown)
VH: QVQLQQSGPELVKPGASMKLSCKASGYSFTRNDINWVKQRPGQGLEWIGLSYPRDGTTQYNGKFKGKATLTVDTSSSTAYMELRSLTSEDSAVYFCARGYYGNSFAYWGQGTLVTVSA
VL: B1 VL with L21M, R36K, D76Y, Y93F, A97D, S99Y, Y100F, L102Y, A106G, L112I
B3: ch33G12 (antibody, V domains shown)
VH: EVKLVESGGGLVQPGGSLKLSCAASGFTFSRYAMSWVRQTPEKRLEWVAYISIGGTTYYPDTIKGRFTISRDNAKNTLYLQMSSLKSEDTAMYYCTRHYYGHDVMDYWGQGTSVTVSS
VL: QIVLSQSPTILSASPGEKVTMTCRATSSVSYMHWFQQKPGSSPKPWIYATSNLASGVPARFSGSGSGTSYSLTISRVEAEDAATYYCQQWSRNPLTFGAGTKLELK
B4: ch99H8 (antibody, V domains shown)
VH: QVQLQQSGPELVKPGASVKLSCKASGYSFTNFDINWVKQRPGQGLQWIGRLYPRDGTTTYNEKFKGKASLTVDTSSTTSYMDLHSLTSEDSAVYFCVRGNYGNSFAYWGQGTLVTVSA
VL: DIVMTQSPSSLTVTAREKVIMNCKSSQSLFNSGNQKNYLTWYQQKPGQSPKLLIYWASTRQSGVPDRFTGSGSGTDFTLTISTVQAEDLAVYFCQNGFSFPYTFGGGTKLEMN
B5: hu22E12.H1L2-ADE (antibody, human IgG1)
heavy: QVQLVQSGAEVKKPGASVKVSCKASGYTFTNWVHWVRQAPGQGLEWMGEINPTNARSNYNEKFKKRVTMTRDTSTSTVYMELSSLRSEDTAVYYCARIYYGNSFAHWGQGTLVTVSSASTKGPSVFPLAPSSKSTSGGTAALGCLVKDYFPEPVTVSWNSGALTSGVHTFPAVLQSSGLYSLSSVVTVPSSSLGTQTYICNVNHKPSNTKVDKKVEPKSCDKTHTCPPCPAPELLAGPDVFLFPPKPKDTLMISRTPEVTCVVVDVSHEDPEVKFNWYVDGVEVHNAKTKPREEQYNSTYRVVSVLTVLHQDWLNGKEYKCKVSNKALPAPEEKTISKAKGQPREPQVYTLPPSREEMTKNQVSLTCLVKGFYPSDIAVEWESNGQPENNYKTTPPVLDSDGSFFLYSKLTVDKSRWQQGNVFSCSVMHEALHNHYTQKSLSLSPGK
VL: DIVMTQSPDSLAVSLGERATINCKSSQSLLNAGNQKNYLTWYQQKPGQPPKLLIYWSSTRESGVPDRFSGSGSGTDFTLTISSLQAEDVAVYHCQNNYYYPLTFGGGTKLEIK
B6: hu22E12.H1L2-VLPLL (antibody, human IgG1)
heavy: B5 heavy with L235V, A236G, D239S, F243L, R292P, Y300L, E332I, P396L
VL: B5 VL
B7: hu22E12.H1L2-DE (antibody, human IgG1)
heavy: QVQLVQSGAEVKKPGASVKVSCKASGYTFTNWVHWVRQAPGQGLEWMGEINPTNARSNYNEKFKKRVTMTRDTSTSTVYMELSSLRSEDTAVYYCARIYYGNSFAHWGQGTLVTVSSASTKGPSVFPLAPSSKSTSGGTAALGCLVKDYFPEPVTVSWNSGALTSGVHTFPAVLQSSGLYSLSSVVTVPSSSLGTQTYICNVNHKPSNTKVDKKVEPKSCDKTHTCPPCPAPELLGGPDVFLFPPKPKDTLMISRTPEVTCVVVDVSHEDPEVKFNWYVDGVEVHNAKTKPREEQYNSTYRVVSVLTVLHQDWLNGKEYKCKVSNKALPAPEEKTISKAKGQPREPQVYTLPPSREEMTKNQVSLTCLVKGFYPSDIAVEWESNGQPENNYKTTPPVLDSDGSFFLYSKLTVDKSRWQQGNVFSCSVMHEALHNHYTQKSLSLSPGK
VL: B5 VL
B8: hu22E12.H1L2-DLE (antibody, human IgG1)
heavy: B5 heavy with A236G, A330L
VL: B5 VL
B9: hu22E12.H1L2 (antibody, V domains shown)
VH: QVQLVQSGAEVKKPGASVKVSCKASGYTFTNWVHWVRQAPGQGLEWMGEINPTNARSNYNEKFKKRVTMTRDTSTSTVYMELSSLRSEDTAVYYCARIYYGNSFAHWGQGTLVTVSS
VL: B5 VL
notes: humanized 22E12
B10: hu22E12.H2L2 (antibody, V domains shown)
VH: B9 VH with T73R, Y94F, R97G
VL: B5 VL
notes: humanized 22E12
B11: hu22E12.H2L3 (antibody, V domains shown)
VH: B9 VH with T73R, Y94F, R97G
VL: B5 VL with A19V, I21L, L84V
notes: humanized 22E12
B12: hu22E12.H3L3 (antibody, V domains shown)
VH: B9 VH with K12V, R37I, R71L, T73R, Y94F, R97G
VL: B5 VL with A19V, I21L, L84V
notes: humanized 22E12
B13: hu22E12.H4L1 (antibody, V domains shown)
VH: B9 VH with K12V, V20L, R37I, M47I, M69L, R71L, T73R, Y94F, R97G
VL: B5 VL with H93Y
notes: humanized 22E12
B14: hu22E12.H2L1 (antibody, V domains shown)
VH: B9 VH with T73R, Y94F, R97G
VL: B5 VL with H93Y
notes: humanized 22E12
B15: hu22E12.H4L2 (antibody, V domains shown)
VH: B9 VH with K12V, V20L, R37I, M47I, M69L, R71L, T73R, Y94F, R97G
VL: B5 VL
notes: humanized 22E12
B16: hu22E12.H3L2 (antibody, V domains shown)
VH: B9 VH with K12V, R37I, R71L, T73R, Y94F, R97G
VL: B5 VL
notes: humanized 22E12
B17: hu22E12.H1L1 (antibody, V domains shown)
VH: B9 VH
VL: B5 VL with H93Y
notes: humanized 22E12
B18: hu22E12.H3L1 (antibody, V domains shown)
VH: B9 VH with K12V, R37I, R71L, T73R, Y94F, R97G
VL: B5 VL with H93Y
notes: humanized 22E12
B19: hu22E12.H4L3 (antibody, V domains shown)
VH: B9 VH with K12V, V20L, R37I, M47I, M69L, R71L, T73R, Y94F, R97G
VL: B5 VL with A19V, I21L, L84V
notes: humanized 22E12
B20: hu22E12.H1L3 (antibody, V domains shown)
VH: B9 VH
VL: B5 VL with A19V, I21L, L84V
notes: humanized 22E12
B21: hu35B4.H2L2 (antibody, V domains shown)
VH: EVQLLESGGGLVQPGGSLRLSCAASGFTLSSYALSWVRQAPGKGLEWVSYISNLGGSTFYPDTVKGRFTISRDNSKNTLYLQMNSLRAEDTAVYYCATHLYNYDAFASWGQGTLVTVSS
VL: DIQLTQSPSFLSASVGDRVTITCRASSSVNYIHWYQQKPGKAPKALIYATSNLASGVPSRFSGSGSGTEYTLTISSLQPEDFATYYCQQWNSNPLTFGQGTKLEIK
notes: humanized 35B4
B22: hu35B4.H1L3 (antibody, V domains shown)
VH: B21 VH with T98K
VL: B21 VL with A42S
notes: humanized 35B4
B23: hu35B4.H3L1 (antibody, V domains shown)
VH: B21 VH with S49A
VL: B21 VL with A45L, Y70F
notes: humanized 35B4
B24: hu35B4.H1L1 (antibody, V domains shown)
VH: B21 VH with T98K
VL: B21 VL with A45L, Y70F
notes: humanized 35B4
B25: hu35B4.H2L4 (antibody, V domains shown)
VH: B21 VH
VL: B21 VL with I21M, A42S, L77V
notes: humanized 35B4
B26: hu35B4.H3L4 (antibody, V domains shown)
VH: B21 VH with S49A
VL: B21 VL with I21M, A42S, L77V
notes: humanized 35B4
B27: hu35B4.H3L2 (antibody, V domains shown)
VH: B21 VH with S49A
VL: B21 VL
notes: humanized 35B4
B28: hu35B4.H1L4 (antibody, V domains shown)
VH: B21 VH with T98K
VL: B21 VL with I21M, A42S, L77V
notes: humanized 35B4
B29: hu35B4.H3L3 (antibody, V domains shown)
VH: B21 VH with S49A
VL: B21 VL with A42S
notes: humanized 35B4
B30: hu35B4.H2L3 (antibody, V domains shown)
VH: B21 VH
VL: B21 VL with A42S
notes: humanized 35B4
B31: hu35B4.H2L1 (antibody, V domains shown)
VH: B21 VH
VL: B21 VL with A45L, Y70F
notes: humanized 35B4

The binders below were run against human CLDN18.2 (hCLDN18.2), expressed on cells (human) (assay: cell-based or functional assay).

PBMC VS NUGC4 ADCC (EC50 nM) [nM]	Binder
8.69	B1
6.93	B2
0.458	B3
3.31	B4

Target: human CLDN18.2 (hCLDN18.2), expressed on cells (human)
Experiment: cell-based or functional assay
Remark: another data set of the same source

ADCC EC50 (nM), NK-CD16a effector cells [nM]	Binder
0.00765	B5
0.00997	B6
0.00637	B7
0.00503	B8
0.144	B9

The binders below were run against T1, human CLDN18.2 (hCLDN18.2), expressed on cells (human) (assay: FACS, MFC cells over-expressing hCLDN18.2).
T1 construct: the constructs in the cell lines are not described; also called Claudin18.2; HEK293-hCLDN18.2

EC50 [pM]	Binder
586	B10
642	B11
1190	B12
1160	B13
656	B14
1050	B15
1320	B9
1250	B16
1310	B17
1230	B18
2000	B19
1080	B20

Each binder was assayed against T1, human CLDN18.2 (hCLDN18.2), expressed … (assay: FACS, SNU620 cells over-expressing hCLDN18.2).

EC50 [pM]	Binder
439	B21
382	B22
258	B23
525	B24
367	B25
350	B26
297	B27
474	B28
319	B29
413	B30
355	B31

— US20240270839A1 (ELPISCIENCE SUZHOU BIOPHARMA, published 2024)
